Test results reported in publication PMC9646879, “Cryo-EM reveals the architecture of the PELP1-WDR18 molecular scaffold” (Nature Communications, 2022).

B1: epitope-tagged SENP3 (enzyme)
chain: not shown
notes: SENP3, human; Blots used anti-HA, anti-GFP and anti-MYC antibodies; also called SUMO protease SENP3; source: HEK293FT, transiently transfected; in lysate (co-IP) and co-purified with C-terminal FLAG-tagged PELP1 (cross-linking)
B2: N-terminally FLAG-tagged PELP1 Rix1 domain (1-642aa) (domain or fragment)
chain: not shown
notes: PELP1, human, N-terminal Rix1 domain, residues 1-642; Two copies stand in the PELP1-WDR18 heterotetramer of the cryo-EM structure; also called Rix1 domain of PELP1; source: HEK293FT, transiently transfected; not shown: FLAG, N-terminal, kept

Columns and labels:
[1] = molecular target: T1, C-terminal FLAG-tagged PELP1 (full length) (human, UniProt Q8IZL8 1-1130); assay: cross-linking; BS3 cross-linking with mass spectrometry of the Rix1 complex purified via the C-terminal FLAG tag on full-length PELP1; 2.0 uM complex, 50 mM Hepes pH 7.3, 600 mM NaCl, 5 mM MgCl2, 5% glycerol, room temperature 10 min; BS3 1.2 mM (methods) or 0.12 mM (results); settings: both partners purified
T1 construct: also called C-terminal PELP1 IP; source: HEK293FT, transiently transfected; in lysate (co-IP) and purified with the Rix1 complex via the C-terminal FLAG tag (cross-linking); not shown: FLAG, C-terminal, kept

[2] = molecular target: B2; assay: cross-linking; BS3 cross-linking with mass spectrometry of the PELP1 Rix1 domain-WDR18 sub-complex purified via the N-terminal FLAG tag; 6.0 uM complex, 1.0 mM BS3, 50 mM Hepes pH 7.3, 600 mM NaCl, 5 mM MgCl2, 5% glycerol, room temperature 10 min; settings: both partners purified
epitope-tagged SENP3 = molecular target: B1; assay: cross-linking; BS3 cross-linking with mass spectrometry of the Rix1 complex purified via the C-terminal FLAG tag on full-length PELP1; 2.0 uM complex, 50 mM Hepes pH 7.3, 600 mM NaCl, 5 mM MgCl2, 5% glycerol, room temperature 10 min; BS3 1.2 mM (methods) or 0.12 mM (results); settings: both partners purified
[3] = molecular target: the molecule itself; assay: cryo-EM structure; PELP1 Rix1 domain and WDR18 co-expressed in HEK293FT and co-purified on anti-FLAG gel; 150 mM NaCl, 50 mM Hepes pH 7.7, 5 mM MgCl2; 0.24 mg/ml; C2 symmetry, 2.7 Å

T1 sequence (Q8IZL8 whole entry): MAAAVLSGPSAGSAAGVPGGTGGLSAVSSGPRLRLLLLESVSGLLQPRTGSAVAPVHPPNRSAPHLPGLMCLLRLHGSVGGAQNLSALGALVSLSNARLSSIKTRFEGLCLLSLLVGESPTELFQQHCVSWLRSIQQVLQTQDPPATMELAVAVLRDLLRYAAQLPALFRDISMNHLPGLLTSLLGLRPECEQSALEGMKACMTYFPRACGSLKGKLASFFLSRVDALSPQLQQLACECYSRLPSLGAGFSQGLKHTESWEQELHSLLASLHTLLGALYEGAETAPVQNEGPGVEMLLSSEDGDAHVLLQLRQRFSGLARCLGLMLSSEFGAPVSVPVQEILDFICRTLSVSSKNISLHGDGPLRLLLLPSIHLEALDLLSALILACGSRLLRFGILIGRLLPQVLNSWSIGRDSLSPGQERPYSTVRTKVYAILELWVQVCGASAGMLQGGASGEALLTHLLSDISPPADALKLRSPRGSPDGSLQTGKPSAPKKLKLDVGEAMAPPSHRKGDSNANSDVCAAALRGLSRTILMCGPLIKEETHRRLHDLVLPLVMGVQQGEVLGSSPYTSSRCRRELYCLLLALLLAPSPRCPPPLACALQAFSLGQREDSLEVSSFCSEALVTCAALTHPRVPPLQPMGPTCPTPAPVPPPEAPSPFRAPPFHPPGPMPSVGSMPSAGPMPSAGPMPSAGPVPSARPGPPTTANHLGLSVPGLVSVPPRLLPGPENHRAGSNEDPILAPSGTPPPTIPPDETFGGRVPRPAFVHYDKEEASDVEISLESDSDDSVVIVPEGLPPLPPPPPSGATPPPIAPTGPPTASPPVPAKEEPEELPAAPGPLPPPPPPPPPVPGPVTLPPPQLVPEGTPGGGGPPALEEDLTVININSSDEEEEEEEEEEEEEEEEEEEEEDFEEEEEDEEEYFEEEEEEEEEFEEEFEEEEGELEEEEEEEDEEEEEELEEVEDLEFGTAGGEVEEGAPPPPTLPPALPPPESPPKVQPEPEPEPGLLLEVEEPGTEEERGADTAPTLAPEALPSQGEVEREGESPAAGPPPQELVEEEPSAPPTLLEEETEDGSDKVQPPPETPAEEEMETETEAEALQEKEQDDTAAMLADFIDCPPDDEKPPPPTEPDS
Sequence of epitope-tagged SENP3 (Q9H4L4 whole entry, the tested form may be a part): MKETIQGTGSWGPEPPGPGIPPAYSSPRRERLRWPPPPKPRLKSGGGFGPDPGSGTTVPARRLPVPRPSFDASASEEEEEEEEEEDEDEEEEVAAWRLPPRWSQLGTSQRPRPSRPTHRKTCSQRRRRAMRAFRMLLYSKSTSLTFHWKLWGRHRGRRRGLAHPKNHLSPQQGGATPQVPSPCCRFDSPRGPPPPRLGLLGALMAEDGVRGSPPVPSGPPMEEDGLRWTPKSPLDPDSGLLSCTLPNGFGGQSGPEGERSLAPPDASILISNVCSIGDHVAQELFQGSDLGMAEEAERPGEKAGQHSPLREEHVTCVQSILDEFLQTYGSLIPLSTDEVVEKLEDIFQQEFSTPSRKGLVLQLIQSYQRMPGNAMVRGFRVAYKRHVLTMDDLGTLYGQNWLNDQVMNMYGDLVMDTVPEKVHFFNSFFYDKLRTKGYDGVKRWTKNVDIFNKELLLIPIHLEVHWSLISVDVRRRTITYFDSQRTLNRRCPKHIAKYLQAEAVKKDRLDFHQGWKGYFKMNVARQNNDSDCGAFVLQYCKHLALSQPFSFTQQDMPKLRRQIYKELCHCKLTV

| binding result [1] | binding result [2] | binding result (epitope-tagged SENP3) | Binder | stoichiometry N [3] |
| --- | --- | --- | --- | --- |
| binds | – | – | B1 | – |
| binds | binds | binds | C-terminally HA-tagged WDR18 (full length) (natural protein, human, UniProt Q9BV38 1-432, looked up, WDR18, human, full length; The HA tag is stated for the cryo-EM sample; Two copies stand in the heterotetramer; source: HEK293FT, transiently transfected; in lysate (co-IP) and co-purified with FLAG-tagged PELP1 constructs on anti-FLAG gel (cryo-EM, cross-linking); not shown: HA, C-terminal, kept) MAAPMEVAVCTDSAAPMWSCIVWELHSGANLLTYRGGQAGPRGLALLNGEYLLAAQLGKNYISAWELQRKDQLQQKIMCPGPVTCLTASPNGLYVLAGVAESIHLWEVSTGNLLVILSRHYQDVSCLQFTGDSSHFISGGKDCLVLVWSLCSVLQADPSRIPAPRHVWSHHALPITDLHCGFGGPLARVATSSLDQTVKLWEVSSGELLLSVLFDVSIMAVTMDLAEHHMFCGGSEGSIFQVDLFTWPGQRERSFHPEQDAGKVFKGHRNQVTCLSVSTDGSVLLSGSHDETVRLWDVQSKQCIRTVALKGPVTNAAILLAPVSMLSSDFRPSLPLPHFNKHLLGAEHGDEPRHGGLTLRLGLHQQGSEPSYLDRTEQLQAVLCSTMEKSVLGGQDQLRVRVTELEDEVRNLRKINRDLFDFSTRFITRPAK | – |
| – | – | – | B2 | 2 |
